Data: a protein production outcome set (Wang et al. 2014)

Test: label from the status in PepcDB records

| Sequence | protein production |
| --- | --- |
| MSTIIETGKSDFIKVNVSNSHNDAVAFEVKLAKDLTVAQLKTKLEILTGGCAGTMKVQVFKGDTCVSTMDNNDAQLGYYANSDGLRLHVVDSFATFSFDSAPVEKFELSKDQYEQRTDSVRNYLKINRMGKYNDEEMQQAEEKKRLQAEEIQKRAELCVLGGRCEVTVPGNPTRRGTIRYNGPLEGKSGHFIGVEYDEPLGKNNGSFGGKAYFTCAPNYGGFVSPLSVTVGDFPPEDFNMDDEL | failed |
| MSTILSLAPQNVWKHFYSLTQVPRPSGYLKKVQEFLLNFGKSVGVESFQDEAGNIIYRKPATPGMENRKKVILQAHMDMVPQKNNDTVHDFENDPIETYIDGDWVKAKGTTLGADDGMGVAAIMAIMEDKTLKHGPLEALITADEETGMFGAFGLKPGTVDGDILLNLDSEEEGELYIGCAGGEDLTAVLEYKEVETDPADIALKVTLKGLRGGHSGLEINEGRANANKLMARFMNQVITYDEACLVSWQGGNMRNAIPRECEVVITVPAEEEADVLEFVQECEALWNEEYHVHETPISFKAERVELPAMMVPDEIKDNLVDAIYACQNGVMRMIPTIPDTVETSSNLAIVSIGGGKAEIKILARSSRDSMKDYLNTALESCFSMAGMEVTRSGGYSGWEPNVDSPILKAMKESYKAQFGTEPAVKVIHAGLECGIIGAVVPGLDMISFGPTLRSPHSPDERCFIPSVGKFYDFVVATLENTPVKE | failed |
| MSTKKPAAAYSEASIKVLKGLEPVKQRPGMYTRTENPLHIIQEVIDNASDEALGGFGKQITVTLHPDQSVSVEDDGRGIPFGLHPEEKVPVVEIVFTRLHAGGKFDKAKGGAYTFSGGLHGVGVSVTNALATRLDVTVWRDGKIAQLGFADGDVVKPLATQGAGRGEKKSGTRVTVWPNPKYFDSPNLPLGELQRLLRSKAVLLPGVEVVLVNEKTGERQSWKYEDGLRGYLLDEMNGSELLIPLFEGERFADSRSGDDTFAEGEGASWVVAWSEEGSLVRESYVNLIPTPAGGTHESGLRDGLYQAVKSFVELHNLQPKGVKLLAEDVFARVSFVLSAKVLDPQFQGQIKERLNSRDAVKLVSSFTRPALELWLNQHVEHGKKLAELVIKQAQARTRAGQKIEKKKSSGVAVLPGKLTDCETEDIARNELFLVEGDSAGGSAKMGRDKEYQAILPLRGKVLNTWETERDRLFANNEVHDISVAIGVDPHGPDDSVDVSNLRYGKICILSDADVDGAHIQVLLLTLFFKHFPQLIERGHVFVARPPLFRVDAPARGKKPAQKLYALDEGELEAILDKLRKDGVRESQWTISRFKGLGEMSAEQLWDTTMNPDTRRLMPVALGELDFEATVARMTMLMGKGEAAARRNWLEEKGNEVEADI | failed |
| MSTLPTPPRPRPVDIIIPVYKGLEETRLCLESVLATLPAADGLIVIDDHSPDPALVAYLKDRAAGDRRIRLLHNPENLGFVGTVNRGMALEPERDVLLLNSDTEVAGDWVARLRAAAYADRRIGTVTPFSNNATICSWPRFCQDNPLPPGLDVAGVDRAFAAANPGLSIDIPTGVGFAFYIRRDCLDEVGLFNAEAFGKGYGEENDFCRRAHHRGWRNVLAADTFVYHSGNVSFGVNQERLDSAMRQLLALHPDYRRVVQLHINQDPAQNMRWRAALGILRQSALPVLLFVTHNHGGGTLSHVHELAKALEGRAWGLLLTPGPRNTAVVTLPASLGGDALPFDLEQDWDGLLDLLRYAGVNRLHLHHMLGVPERLLDLPEQLSIPFDFTAHDFHAGCPRVMLCGPGSRYCGQPEERALCDACLAQAPKTEAGDITSWRAAMVARLSRAERLFAPSADTANRLKRMLPALSFRAIPHPDAQGLATNAPPPLLRPCGTTEPLRILVLGALSRAKGADLVEATAREAARGDLPLEIHLLGYGYRPLHRARGRLTAHGRYHPEEIAGHLERIAPHVAWLPAGWPETYSYTLSEVMAAGLPVVVSDLGAPPERILGRPLSWVLPWNVDASTAAAFFGRLRAGEIPASPEAPALSPQSTPRVDFYREGYLAEVFPEKARARLPEREIGELIGQALDRAGARRRRLQCWGDLKVVRQRIWRSLITLLAHPSLFPLVSRIPVSFQERLKRLIKG | failed |
| MSTNQEKLFGRLLLKNDILQLIKNTDKISVSKIFSNFLLETKVNPILGMTSISSNKIKCNRCGTVHIKNSVKLPIGVFYCPSCIQLGRVRSDDFLYFLPQKNFPKKSYINWSGKLTENQKSISNALCQEINSHQQIIVQAVTGAGKTEMIYQVIEQILESGGVVGLASPRIDVCLELHQRLSRDFSCKIPLLYHDGDSYFRAPLIIMTSHQLLRFKEAFDLLIIDEVDAFPFRDNEMLYVAAEKARKIEGNLIYLTATSTDKLEKDIKKQKLYPLFLPRRFHNFPLVVPKFFWKNKFDKKLIEQRNSGFPLLIFAAEIEFGQEFAKQLQLKFPKEKIASVASTTKDRLEIVKAFRNKEITILIATSILERGVTFPNVDVFVINSEHPNFTKSALIQMAGRVGRSPERPTGLVSFFHYGKSKAMCQAVREIKKMNQLGCFS | failed |
| MSTNYIDCQLLNKMERQPSFSSFDCGDPFLDSFAPKKLANADANNDSRVYVAVDGDIGVGYATMKVFMLSNDEYKILSGKYPRQVPVVMLDQIAVDKAYQGKGIGKRLMRKVLEATVLVNELAAAKGLALWAHPRAKDFYESLGFEAIPDATKQVQDVELTLMFIHVETILDALK | failed |
| MSTPDIGTFTVRPLDPTRDAELLHGWVTHPKSAFWMMQEARLHDVEREYMAIAASEYHDAFLGLLDDEPVFLMEKYDPAHVELVGLYEPEPGDVGMHFLVAPTDTPVHGFTRAVITAVMEHLFADPATRRVVVEPDVGNKAVHALNEAVGFVPEREIQKPEKKALLSFCTREQFAAAVRGAAV | not failed |
| MSTPLQGIKVLDFTGVQSGPSCTQMLAWFGADVIKIERPGVGDVTRHQLRDIPDIDALYFTMLNSNKRSIELNTKTAEGKEVMEKLIREADILVENFHPGAIDHMGFTWEHIQEINPRLIFGSIKGFDECSPYVNVKAYENVAQAAGGAASTTGFWDGPPLVSAAALGDSNTGMHLLIGLLAALLHREKTGRGQRVTMSMQDAVLNLCRVKLRDQQRLDKLGYLEEYPQYPNGTFGDAVPRGGNAGGGGQPGWILKCKGWETDPNAYIYFTIQEQNWENTCKAIGKPDWITDPAYSTAHARQPHIFDIFAEIEKYTVTIDKHEAVAYLTQFDIPCAPVLSMKEISLDPSLRQSGSVVEVEQPLRGKYLTVGCPMKFSAFTPDIKAAPLLGEHTAAVLQELGYSDDEIAAMKQNHAI | failed |
| MSTPLTLIATITAAPGHAEALERELRALVAPSRAEAGCLQYDLHQDRHDSHLFYMIEQWRDDAALERHQNTEHFLRFSRGNEALLQNVKIDQLYRLA | not failed |
| MSTQFKLPLASPLTHGREDFAVSPSNGEAVARLDAWPDWAEGRLVLVGPAGCGKSHLARAWAAAAGAVVVEAANPDAASVDLSALRGRAVLVEDADRRAQGAAVSDEALFHILNMAGVDGGTVLLTGRTAPLTWSAEVADLRSRLNALSVAEIAEPDDAVLEAVLRRAFAAAWWKPEPDLYPYLLARLPRSAAEAQAAAALLAEAAADGRRELTKALAREVLEGFEGDEGLEHHHHHH | failed |
| MSTQKQEQAFFGLVWLARLTVCLLTVGLALAIDSTATERHRADVRAKWQEKVDDLGLRLRATILQNTQTVWGLAANVAVQPDIGEERFQRLASVIFKLAPELLNIGLAPGFVIKHIYPLDGNEAALGLDLQAQSLSRDQMALLLESRRAVFSGPINLVQGGQGLAARIPIFENDTGRVWGVISTILDLDRLYTAIGLDSLPPEVVFALSTTGSGNIDKGLFFGEPDAAWQEPVSTTMAMPGFSWKLYAQPADGWPDHPDSPWLLRSLLGLVTLIIIAGTLWITTLILRDRQMQLRFWGLFELAPFGIALYDAISGELLQANPGFTRILDSKANNIGYFDDVRSLSGDKQRSEPSISNRLASQVRFTGVEGFFPMADGTLQPLMLHGLRLDLQGKESVIWIIVEDISQRKEAERLKSEFISTVSHELRTPLTSISGALSLLTTNAVGELSGKAQQLLKIAQRNSDQLGFLINDLLDIEKLIAGKMDFNVIEFPVSEAITESLENIQNYATEKNITLNAQELSTTTVKADKQRLAQALNNILSNAIKFSPVNGQIRIWTKLHGQGLRIYVQDEGPGIAPEFRERMFQKFSQADSSDRRSKGGTGLGLAITKELMARMEGDVDFTSEAGQGATFWLEVPAA | failed |
| MSTRSARIVVVSSRAAAGVYTDDCGPIIAGWLEQHGFSSVQPQVVADGNPVGEALHDAVNAGVDVIITSGGTGISPTDTTPEHTVAVLDYVIPGLADAIRRSGLPKVPTSVLSRGVCGVAGRTLIINLPGSPGGVRDGLGVLADVLDHALEQIAGGDHPR | not failed |
| MSTSEDTLRTSPDTFDADSVTSKGAPQEHARQVSGMFGRIARWYDLLNHVLSGGLDLYWRYRLVRQVVPGPTGRVLDLAAGTLDVAREIHRQHPGMRVPALDFCEAMLRAGQPKLVDGVQDVIWPAVADGRRLPLADASVDCVTIAFGIRNIVPRREAFEEMLRVLVPGGRACILEFGTGKTPVWKGLYNFYLNTLLPLVGRCVSGDAGAYRYLADTIMSFPDADALAAEMHDAGFTRVYHLPLTSGIVRLHVGEKPL | failed |
| MSTSKAITLTLFIATTLLAPCNAAANATTKPLFPAILIFGDSTVDTGNNNYPLPTIFRAEHFPYGMDLPDGKANGRFSNGKLISDIIATKLNIKEFIPPFLQPNLSDQDILTGVCFASAGAGYDDLTSLSTQAIRVSEQPNMFKSYIARLKGIVGDKKAMEIINNAFVVVSAGPNDFILNYYEIPSRRLEYPFISGYQDFILKRLENFVRELYSLGVRNVLVGGLPPMGCLPIHMTAKFRNIFRFCLEHHNKDSVLYNEKLQNLLPQIEASLPGSKFLYADVYNPMMEMIQNPSKYGFKETKRGCCGTGFLETSFMCNVFSPVCQNRSEFLFFDSIHPSEATYNVIGNLLDPLIRGKFQA | failed |
| MSTSWRIRIMLTIHAKLVEAMLAQAHKDHPFEICGVIAGPEKSNLPLRLIPMRNAAQSETFFKFDPQEQLQVWREMEARGEEPIVIYHSHTHTPAYPSRTDVQYASQPQSHYVIVPTDPAYGEEIRSFRILDGMVTEERIRMINSYKAEWELSMEAMVALEHHHHHH | not failed |
| MSTTGRIHSFESCGTVDGPGIRFIVFLQGCLMRCKYCHNRDTWDTHDGKEVTVEEIIAEAKSYRHFMNASGGGITCSGGEAMLQPEFVRDFFRAAHAEGIHTCLDTNGYIRKHTEVIDEVLDATDLVMLDIKHMKDEIHQDFIGVSNRRTLDFARYLHKIGQKTWIRYVVVPGYTDDPEAAHMLGEFIKDMDNIEKVELLPYHKLGAHKWEALGLEYPLEGVNPPSKETMDEIQSILSQYHSNVKYLEHHHHHH | failed |
| MSTTTRISTAERLGRALGRGWRAYARSERRASNWLVSKGVPLAAAAALLWAGKLAVLGLLLYVAFWLALLLVALVFVARGHDTVEWEPPEPEWRHGHAGFGLYTHDEYRIDSHDPSDET | failed |
| MSVADVALSPIHRGSAFAVGGFGQSTTTHYSVKSVLVFLSVSGSTMPMLILESDSIAEVKLRIQTCNGFRVRRQKLVFSGRELARNASRVKDYGVTGGSVLHLVLKLYDPLLVTVITTCGKVFQFHVDRRRNVGYLKKRISKEGKGFPEVDDQEILFKGEKLDDNRIIDGICKDGNSVIHLLVKKSVEDTVKREEDTATGKDSLLEPLFLTPM | failed |
| MSVAETEIPIPAATPSLTDACVHCGFCLSDCPSYRVLGRETDSPRGRVYLMDSLQQGRIELSDTVVEHFDTCLGCLACTSACPSGVQYDQLIEEMRQRIAQEHRRPWPEAIWRKLLFAFLPYPERLRPILRLGQLYQSSGLQNWLNRQPLLQKFPQLAAASALLPPLSPASFQDNWPTLLPALGDRRYRVGLLLGCVQRLFNPEVNAAAIRVLRANGCDVVIPPQQGCCGAVAHHQGEMQQAQDLARAVIRSFEAENLDAILVTASGCGHTLKHYGAILADDPEWCDRAQQLADRVQDVQEFLATVGLTTPLHPLQEQPLVVVYQDACHMLHGQKIRNQPRQLLQQIPGIELREPVDAQLCCGSAGIYNLLQPAIAAELGQQKARSLAETGAQMIASANIGCYVQIRHHLQAQSKDLPVLHPLQIIDRAMNFQNH | failed |
